From patent US12060598

Biological target: T1, octanoyl-ACP (octanoyl-acyl carrier protein, E. coli K12 MG1655 ACP), P0A6A8
T1 chain: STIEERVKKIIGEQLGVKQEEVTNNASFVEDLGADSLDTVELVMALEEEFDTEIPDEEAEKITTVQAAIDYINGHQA

B1: CpFatB1.2-M4 (ΔA54, N28S, I65M) (protein)
chain: MGSSHHHHHHSSENLYFQGGGGYAAHRDYHRVRCAGKRWTMFDRKSKRPSMLMDSFGLERVVQDGLVFRQSFSIRSYEICADRTASMETVMNHVQETSLNQCKSIGLLDDGFGRSPEMCKRDLIWVVTRMKIMVNRYPTWGDTIEVSTWLSQSGKIGMGRDWLISDCNTGEILVRATSVYAMMNQKTRRFSKLPHEVRQEFAPHFLDSPPAIEDNDGKLQKFDVKTGDSIRKGLTPGWYDLDVNQHVSNVKYIGWILESMPTEVLETQELCSLTLEYRRECGRDSVLESVTSMDPSKVGDRFQYRHLLRLEDGADIMKGRTEWRPKNAGTNGAISTGKT
With B1 the “Km (DTNB thioesterase assay)” value was “the Km remained relatively low” and the “Vmax (DTNB thioesterase assay), fold relative to CpFatB1.2” value was 15.7 fold increase in Vmax over CpFatB1.2.
